Like-named read-outs stand apart in the source and are kept apart here.
Assays:
[1] = target: T1, human B7-H4-Fc (human); assay: ELISA on coated hB7-H4-Fc
T1 construct: also called hB7-H4-Fc; hB7-H4 Fc
Method: (§1) About 1-2 μg/ml of human or mouse B7-H4-Fc (or his-tagged) was immobilized on ELISA plates (Immuno 2HB, Thermo scientific, cat #3455) at 4° C. overnight. After blocking the plates with 3% PBS+milk, serial diluted antibodies were added to the blocked plates and incubated at RT for 1-1.5 h. After washing the plates with PBS-T (0.05%), horse radish peroxidase (HRP)-conjugated antibody targeting the hFab was added to the plate. Signals were developed by adding 3,3′,5,5′-Tetramethylbenzidine (TMB (followed 1N of H₂SO₄ to stop the reaction. The OD at 450 nm was read by ELISA plate reader (Infinite M1000 from TECAN). GraphPad from Prism was used to plot OD450 vs. antibody concentration curve and to calculate the EC50 values.

[2] = target: T2, mouse B7-H4-Fc (mouse; human); assay: ELISA on coated mB7-H4-Fc
T2 construct: also called mB7-H4-Fc; mB7-H4-hFc
T2 sequence (chain, as listed by the source): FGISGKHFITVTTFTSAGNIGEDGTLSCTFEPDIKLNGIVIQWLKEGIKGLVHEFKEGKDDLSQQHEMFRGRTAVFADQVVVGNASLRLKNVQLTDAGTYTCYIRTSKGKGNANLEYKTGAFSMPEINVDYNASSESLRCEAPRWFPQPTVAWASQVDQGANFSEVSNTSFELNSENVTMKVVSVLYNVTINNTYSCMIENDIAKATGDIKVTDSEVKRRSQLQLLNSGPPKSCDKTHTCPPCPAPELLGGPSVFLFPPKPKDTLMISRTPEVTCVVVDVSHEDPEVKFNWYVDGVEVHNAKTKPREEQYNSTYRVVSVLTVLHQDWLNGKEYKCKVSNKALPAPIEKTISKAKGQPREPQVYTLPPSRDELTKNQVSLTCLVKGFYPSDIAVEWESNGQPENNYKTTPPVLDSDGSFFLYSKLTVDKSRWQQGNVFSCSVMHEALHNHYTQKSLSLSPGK
Method: as §1

[3] = target: T3, IgV domain of human B7-H4-Fc (human); assay: ELISA, coated hB7-H4 IgV domain
T3 construct: also called hB7-H4 IgV domain
T3 sequence (chain, as listed by the source): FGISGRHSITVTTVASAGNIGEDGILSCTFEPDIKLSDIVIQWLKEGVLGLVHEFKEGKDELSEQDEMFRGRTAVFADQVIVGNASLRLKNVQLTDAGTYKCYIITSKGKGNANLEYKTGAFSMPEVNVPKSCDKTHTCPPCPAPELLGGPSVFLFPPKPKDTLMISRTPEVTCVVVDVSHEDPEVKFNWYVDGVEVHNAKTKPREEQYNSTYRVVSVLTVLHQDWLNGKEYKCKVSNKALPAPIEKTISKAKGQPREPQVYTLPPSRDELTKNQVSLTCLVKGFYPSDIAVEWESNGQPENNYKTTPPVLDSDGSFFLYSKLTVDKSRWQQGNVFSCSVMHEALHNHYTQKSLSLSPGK
Method: as §1

[4] = target: T2, mouse B7-H4-Fc; assay: ELISA, coated mB7-H4-Fc
In short: (§2)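 Following overnight 4° C coating with about 1-2 μg/ml B7-H4-Fc or his-tagged protein and 3% PBS+milk blocking, antibody dilution series bind 1-1.5 h at RT. HRP anti-hFab plus TMB yields OD450, from which EC50 is derived.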

[5] = target: T4, human B7-H4 expressed on cells (human, UniProt Q7Z7D3 25-282); assay: flow cytometry, SK-BR-3 cells
T4 construct: Transfected CHO cells or tumor cell lines that carry hB7-H4; also called cellular hB7-H4
T4 sequence: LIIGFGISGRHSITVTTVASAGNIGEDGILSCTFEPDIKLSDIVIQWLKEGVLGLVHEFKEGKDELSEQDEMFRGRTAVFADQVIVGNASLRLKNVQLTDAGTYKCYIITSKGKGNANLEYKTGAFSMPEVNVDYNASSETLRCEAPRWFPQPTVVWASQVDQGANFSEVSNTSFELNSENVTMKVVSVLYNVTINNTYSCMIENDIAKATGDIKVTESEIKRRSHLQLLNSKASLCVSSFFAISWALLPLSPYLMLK

[6] = target: T2, mouse B7-H4-Fc; assay: ELISA, coated mB7-H4-Fc (title on the sheet: Binding to mB7H4-Fc)
Method: ELISA experiments were performed to determine binding to hB7-H4-Fc (FIG. 4A), hB7-H4-his (FIG. 4B), hB7-H4 IgV domain (FIG. 4C), and mB7-H4 IgV domain (FIG. 4D). Flow cytrometry experiments were performed to determine binding to CHO cells expressing hB7-H4 (FIG. 4E) or mB7-H4 (FIG. 4F). […] A cross-reactive IgV binding antibody was used as a control.
as §1

[7] = target: T4, human B7-H4 expressed on cells; assay: flow cytometry, MX-1 cells
Method: (§3) Cells were harvested, washed once, and then re-suspended to the concentration of 1×10⁶ cells/ml in ice cold FACS Buffer. 25 μl of cell suspension was added to each well of a 96-well round-bottom microliter plate. Serially diluted antibodies or fusion proteins were added to each well and incubated for 1 hour at 4° C. Cells were washed three times by centrifugation at 1500 rpm for 5 minutes, and then stained with secondary antibody (1:200 dilution) for 30 min at 4° C. in the dark. Cells were washed once, re-suspended in 100 μl PBS buffer and then analyzed using Guava Flow Cytometry EasyCyte system.

[8] = target: T5, hB7-H4 (soluble human B7-H4, construct not named) (human, UniProt Q7Z7D3 25-259, limits assumed); assay: ELISA, hB7-H4
T5 construct: also called soluble hB7-H4
T5 sequence: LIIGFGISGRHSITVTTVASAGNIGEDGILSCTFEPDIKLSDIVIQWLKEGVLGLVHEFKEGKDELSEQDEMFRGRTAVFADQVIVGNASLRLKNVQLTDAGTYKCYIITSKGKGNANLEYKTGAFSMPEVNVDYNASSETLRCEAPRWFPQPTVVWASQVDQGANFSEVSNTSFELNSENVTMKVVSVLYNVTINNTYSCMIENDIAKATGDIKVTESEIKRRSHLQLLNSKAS
In short: as §2

[9] = target: T3, IgV domain of human B7-H4-Fc; assay: ELISA, coated hB7-H4 IgV domain; remark: listed apart in the source
[10] = target: T6, mB7-H4 (soluble mouse B7-H4, construct not named) (mouse, UniProt Q7TSP5 25-257, limits assumed); assay: ELISA, mB7-H4
T6 sequence: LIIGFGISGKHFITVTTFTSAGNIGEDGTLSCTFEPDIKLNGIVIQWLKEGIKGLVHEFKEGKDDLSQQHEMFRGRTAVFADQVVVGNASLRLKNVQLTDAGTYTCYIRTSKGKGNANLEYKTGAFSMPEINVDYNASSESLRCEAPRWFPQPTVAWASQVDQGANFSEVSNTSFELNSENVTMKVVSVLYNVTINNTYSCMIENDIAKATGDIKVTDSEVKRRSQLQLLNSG
In short: as §2

[11] = target: T7, mouse B7-H4 expressed on cells (mouse, UniProt Q7TSP5 25-257); assay: flow cytometry on mB7H4-CT26 cells
T7 construct: also called cellular mB7-H4; mB7-H4/CT26
T7 sequence: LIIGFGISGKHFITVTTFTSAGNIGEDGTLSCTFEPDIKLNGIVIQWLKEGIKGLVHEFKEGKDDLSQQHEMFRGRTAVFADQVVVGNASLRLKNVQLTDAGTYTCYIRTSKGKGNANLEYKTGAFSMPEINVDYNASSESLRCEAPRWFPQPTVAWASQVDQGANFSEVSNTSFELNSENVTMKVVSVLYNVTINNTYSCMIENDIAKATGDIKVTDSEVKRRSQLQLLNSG
Method: as §3

[12] = target: T7, mouse B7-H4 expressed on cells; assay: flow cytometry, mB7-H4/CT26 cells
In short: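 Cell-surface binding read by flow cytometry: cells (1×10⁶/ml, cold FACS buffer) + serial dilutions of antibody or fusion protein, 1 h, 4 °C; 3 washes; secondary Ab 1:200, 30 min, 4 °C, dark.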

[13] = target: T4, human B7-H4 expressed on cells; assay: flow cytometry, MDA-MB-468 cells
Method: as §3

T1 sequence (chain, as listed by the source): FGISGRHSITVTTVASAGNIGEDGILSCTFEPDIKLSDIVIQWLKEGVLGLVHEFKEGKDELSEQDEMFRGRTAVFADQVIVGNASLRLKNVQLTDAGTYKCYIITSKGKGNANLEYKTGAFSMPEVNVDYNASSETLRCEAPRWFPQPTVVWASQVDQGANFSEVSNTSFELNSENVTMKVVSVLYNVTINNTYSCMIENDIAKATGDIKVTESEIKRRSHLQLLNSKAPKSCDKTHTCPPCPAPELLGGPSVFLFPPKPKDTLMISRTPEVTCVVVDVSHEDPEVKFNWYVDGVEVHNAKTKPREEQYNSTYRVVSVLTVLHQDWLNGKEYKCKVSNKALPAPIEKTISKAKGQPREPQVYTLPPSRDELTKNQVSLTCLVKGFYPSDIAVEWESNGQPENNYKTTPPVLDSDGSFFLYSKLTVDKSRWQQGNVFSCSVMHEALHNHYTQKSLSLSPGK

Binder	EC50 (read off the curve) [1] [nM]	EC50 (read off the curve) [2] [nM]	EC50 (read off the curve) [3] [nM]	EC50 (read off the curve) [4] [nM]	EC50 [5] [nM]	EC50 (read off the curve) [6] [µg/mL]	EC50 [7] [nM]	EC50 [8] [nM]	EC50 (read off the curve) [9] [nM]	EC50 [10] [nM]	EC50 (read off the curve) [11] [nM]	EC50 [12] [nM]	EC50 [13] [nM]
Control antibody 1 (antibody 20502 described in US20190085080A1) (antibody, V domains shown, also called (+) control Ab1; (+) Ab1) VH: QLQLQESGPGLVKPSETLSLTCTVSGGSIKSGSYYWGWIRQPPGKGLEWIGNIYYSGSTYYNPSLRSRVTISVDTSKNQFSLKLSSVTAADTAVYYCAREGSYPNQFDPWGQGTLVTVSS VL: EIVMTQSPATLSVSPGERATLSCRASQSVSSNLAWYQQKPGQAPRLLIYGASTRATGIPARFSGSGSGTEFTLTISSLQSEDFAVYYCQQYHSFPFTFGGGTKVEIK	~0.1	~0.1	~0.2	~0.1	2.64	~0.02							
39A11/57G8 (antibody, human IgG1, V domains shown, 39A11 VH with 57G8 VL) VH: EVQLLESGGGLVQPGGSLRLSCAASGFTFSSYGMHWVRQAPGKGLEWVASISSSSGYIYYADSVKGRFTISRDNSKNTLYLQMNSLRAEDTAVYYCARASSGMDVWGQGTTVTVSS VL: DIQMTQSPSSLSASVGDRVTITCRASQSIRSYLNWYQQKPGKAPKLLIYYASSLQSGVPSRFSGSGSGTDFTLTISSLQPEDFATYYCQQYYSTPLTFGQGTKVEIK					2.82		8.87	0.068	~0.1	0.096	~2	1.22	13.1
